The results in this text go back to patent publication EP0951295B1 (THE SCRIPPS RESEARCH INSTITUTE, dated 2010).

Assay [1] deals with integrin αIIbβ3, purified and immobilized on microtiter wells (UniProt P08514). Kind of assay: solid-phase competition: peptide against 1 nM 125I-fibrinogen on immobilized αIIbβ3; mean of duplicates ± SD.
For assay [2], the target named is integrin αvβ3 (vitronectin receptor), purified and immobilized on microtiter wells (UniProt P06756). Kind of assay: solid-phase competition: peptide against 1 nM 125I-fibrinogen on immobilized αvβ3; mean of duplicates ± SD.
In assay [3] the target is integrin αIIbβ3, purified and immobilized on microtiter wells (UniProt P08514). Kind of assay: solid-phase receptor binding assay, 125I-MMP-2 on immobilized αIIbβ3.
Assay [4] addresses integrin αvβ3 (vitronectin receptor), purified and immobilized on microtiter wells (UniProt P06756). Nature of the assay: solid-phase receptor binding assay, 125I-MMP-2 on immobilized αvβ3.
Assay [5] has as its target T1, integrin αvβ3 (vitronectin receptor), purified and immobilized on microtiter wells (UniProt P06756 31-1048; P05106 27-788).
T1 construct: Purified integrin coated at 50 ng per well; also called αvβ3 receptor; vitronectin receptor (αvβ3)
Kind of assay: solid-phase competition: peptide against vitronectin (VN) on immobilized αvβ3; individual assay.

In assay [6] the target is T2, integrin αIIbβ3, purified and immobilized on microtiter wells (UniProt P08514 32-1039; P05106 27-788).
T2 construct: Purified integrin coated at 50 ng per well; also called α11bβ3
Kind of assay: solid-phase competition: peptide against vitronectin (VN) on immobilized αIIbβ3; individual assay.

Assay [7] addresses T2, integrin αIIbβ3, purified and …. Kind of assay: solid-phase competition: peptide against fibrinogen (FG) on immobilized αIIbβ3; individual assay.
In assay [8] the target is T1, integrin αvβ3 (vitronectin receptor), …. Nature of the assay: solid-phase competition: peptide against fibrinogen (FG) on immobilized αvβ3; individual assay.

As for peptide 62175, cyclo(ARGDfL), the IC50 in assay [1] stood at 0.63 µM; in assay [2], 1.05 µM.

Regarding peptide 62179, cyclo(GRGDfL), the concentration for half-maximal inhibition (IC50) in assay [1] worked out at 0.055 µM; in assay [2], 0.395 µM.

Turning to peptide 62184, cyclo(RGDfV), the concentration for half-maximal inhibition (IC50) in assay [1] came out at 0.525 µM; in assay [2] it was 0.05 µM.

Consider peptide 62186, cyclo(RaDFV), for which the values for the concentration for half-maximal inhibition (IC50) in assay [1] and in assay [2] were 100 µM and 57.5 µM, respectively.

On to peptide 62185, cyclo(RADfV), for which the IC50 in assay [1] came out at 100 µM; in assay [2], 0.885 µM.

In the case of peptide 62187, cyclo(RGDFv), the values for the IC50 in assay [1] and in assay [2] were 0.26 µM and 0.05 µM, respectively.

“MMP-2 (matrix metalloproteinase-2) as used in the solid-phase receptor binding assays (enzyme)”: the bound cpm is 10 CPM in assay [3] and 300 cpm in assay [4].

Consider peptide 62181, cyclo(GrGDFV), for which the concentration for half-maximal inhibition (IC50) in assay [1] was 15 µM; in assay [2] it was 1.96 µM.

B1: peptide 62502, TDVNGDGRHDL (linear, αIIb-derived amino acid residues 296-306) (peptide)
peptide: TDVNGDGRHDL
notes: Linear synthetic peptide
Take B1: the IC50 in assay [5] was more than 100 µM; in assay [6] it was 5 µM; in assay [7], 90 µM; in assay [8], more than 100 µM.

B2: peptide 62411, TRQVVCDLGNPM (linear, αv-derived amino acid residues 676-687) (peptide)
peptide: TRQVVCDLGNPM
notes: Linear synthetic peptide
Consider B2, for which the IC50 in assay [5], in assay [6] and in assay [8] was more than 100 µM each time.

B3: peptide 62503, GVVRNNEALARLS (linear, αv-derived amino acid residues 655-667) (peptide)
peptide: GVVRNNEALARLS
notes: Linear synthetic peptide
Consider B3, for which the IC50 in assay [5], in assay [6] and in assay [8] was more than 100 µM in each case.

B4: peptide 62880, YTAECKPQVTRGDVF (linear, VN-derived amino acid residues 35-49) (peptide)
peptide: YTAECKPQVTRGDVF
notes: Linear synthetic peptide
With B4, the IC50 was 0.5 µM in assay [5], 0.98 µM in assay [6], 4.2 µM in assay [7] and less than 0.1 µM in assay [8].

Usually IC50 stands for the concentration needed to halve the response being measured. A higher IC50 goes with weaker potency.
